# Measured values: paper PMC5344980, “PARP1 promotes gene expression at the post-transcriptional level by modulating the RNA-binding protein HuR”
# B1: Cxcl2-ARE1 RNA oligo (ssRNA)
# RNA: AGUUCACUUAUUUAUUUAUCUAUGU
# B2: Cxcl2-ARE2 RNA oligo (ssRNA)
# RNA: CUAUGUAUUUAUUUAUUUAUUAAUU
# B3: Cxcl2-ARE3 RNA oligo (ssRNA)
# RNA: GUGGACACAUUUAUUUAUUCAUGUA
# B4: AU-rich RNA oligo (tandem ARE) (ssRNA)
# RNA: AUUUAUUUAUUUAUUUAUUUAUUUA
# Tests used:
# [1] = target: T1, GST-HuR (human? (species ; plasmid …, UniProt Q15717 1-326); test: EMSA; no PARP1; Kd value only in figure; 3 mM MgCl2, 40 mM KCl, 5% glycerol, 2 mM DTT, 2 ug tRNA, 20 uM (so in the source) 5'-biotin RNA, 40 min at room temperature; 6% native acrylamide gel; protein 100-160; details: protein: recombinant; tags: GST; label: 5' biotin
# T1 sequence (Q15717 whole entry): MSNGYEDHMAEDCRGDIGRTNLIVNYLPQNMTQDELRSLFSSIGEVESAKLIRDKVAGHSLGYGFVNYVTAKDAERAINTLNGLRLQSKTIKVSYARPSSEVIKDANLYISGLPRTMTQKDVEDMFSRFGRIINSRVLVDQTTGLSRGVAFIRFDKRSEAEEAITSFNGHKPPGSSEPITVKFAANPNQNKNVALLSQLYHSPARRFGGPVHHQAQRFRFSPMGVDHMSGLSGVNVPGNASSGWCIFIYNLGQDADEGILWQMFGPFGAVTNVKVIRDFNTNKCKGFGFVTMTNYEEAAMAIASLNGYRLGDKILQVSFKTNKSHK
# [2] = target: T1, GST-HuR; test: EMSA; with PARP1 + PJ34; enhancement abolished; 3 mM MgCl2, 40 mM KCl, 5% glycerol, 2 mM DTT, 2 ug tRNA, 20 uM (so in the source) 5'-biotin RNA, 40 min at room temperature; 6% native acrylamide gel; protein 100-160; details: protein: recombinant; tags: GST; label: 5' biotin
# [3] = target: T1, GST-HuR; test: EMSA; no PARP1; 3 mM MgCl2, 40 mM KCl, 5% glycerol, 2 mM DTT, 2 ug tRNA, 20 uM (so in the source) 5'-biotin RNA, 40 min at room temperature; 6% native acrylamide gel; protein 100-160; details: protein: recombinant; tags: GST; label: 5' biotin
# [4] = target: T1, GST-HuR; test: EMSA; no PARP1; several shifted bands; 3 mM MgCl2, 40 mM KCl, 5% glycerol, 2 mM DTT, 2 ug tRNA, 20 uM (so in the source) 5'-biotin RNA, 40 min at room temperature; 6% native acrylamide gel; protein 100-160; details: protein: recombinant; tags: GST; label: 5' biotin
# [5] = target: PARP1 (UniProt P09874 2-1014); test: EMSA; PARylation buffer, titrated sonicated DNA; no shifted bands; 3 mM MgCl2, 40 mM KCl, 5% glycerol, 2 mM DTT, 2 ug tRNA, 20 uM (so in the source) 5'-biotin RNA, 40 min at room temperature; 6% native acrylamide gel; protein 100-160; details: protein: recombinant; label: 5' biotin
# PARP1, sequence (P09874 2-1014): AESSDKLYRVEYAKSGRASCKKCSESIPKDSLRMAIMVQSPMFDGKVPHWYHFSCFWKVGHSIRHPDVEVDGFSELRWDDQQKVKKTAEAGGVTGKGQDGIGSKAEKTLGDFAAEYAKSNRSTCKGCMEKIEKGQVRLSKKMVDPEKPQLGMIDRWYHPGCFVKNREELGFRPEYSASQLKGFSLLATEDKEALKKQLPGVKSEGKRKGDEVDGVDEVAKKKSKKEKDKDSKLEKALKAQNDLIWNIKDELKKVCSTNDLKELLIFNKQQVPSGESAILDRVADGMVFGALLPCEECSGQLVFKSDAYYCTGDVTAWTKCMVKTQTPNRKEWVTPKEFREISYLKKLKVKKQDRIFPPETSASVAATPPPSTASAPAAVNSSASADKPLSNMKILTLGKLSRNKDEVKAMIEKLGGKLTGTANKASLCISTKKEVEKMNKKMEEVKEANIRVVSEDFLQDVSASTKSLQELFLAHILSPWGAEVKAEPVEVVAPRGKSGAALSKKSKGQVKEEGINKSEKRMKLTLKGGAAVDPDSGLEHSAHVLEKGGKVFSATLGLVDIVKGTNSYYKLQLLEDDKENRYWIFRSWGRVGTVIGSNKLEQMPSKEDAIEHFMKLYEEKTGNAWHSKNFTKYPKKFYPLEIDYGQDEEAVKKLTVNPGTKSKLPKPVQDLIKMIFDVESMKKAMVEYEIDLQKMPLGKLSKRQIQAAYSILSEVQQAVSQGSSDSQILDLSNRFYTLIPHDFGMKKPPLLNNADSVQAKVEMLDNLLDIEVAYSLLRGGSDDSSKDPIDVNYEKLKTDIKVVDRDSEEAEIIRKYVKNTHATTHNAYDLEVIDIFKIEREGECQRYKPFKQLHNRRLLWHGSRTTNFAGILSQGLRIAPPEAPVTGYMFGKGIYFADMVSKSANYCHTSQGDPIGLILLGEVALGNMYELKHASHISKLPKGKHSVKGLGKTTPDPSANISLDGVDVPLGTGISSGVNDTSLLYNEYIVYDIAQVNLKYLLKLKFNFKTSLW
binder,measurement,setting,value
B1,binding result,[1],binds
B2,binding result,[2],binds
B3,binding result,[3],no binding
B4,binding result,[4],binds
same,binding result,[5],no binding
